Test results as given in paper PMC6987189, “Native aggregation is a common feature among triosephosphate isomerases of different species” (Scientific Reports, 2020).
Several values for one entry are separate records, joined by “and”; a condition that tells them apart may be missing. Equal entries are not always repeated.

Tests used:
[1] = biological target: the molecule itself; assay: native gel or EMSA; clear native electrophoresis (CN-PAGE), normal polarity (cathode-anode), 4-10% gradient gels, HEPES/imidazole pH 7.0 (40.0/15.3, 88.9/34.0 or 133.2/50 mM in the gel), 150 V, 4 °C, 5 h, ten micrograms of purified enzyme; masses from ferritin and albumin markers, means of the gel conditions; also after 10 mM DTT; dimers to higher aggregates
[2] = biological target: the molecule itself; assay: native gel or EMSA; clear native electrophoresis (CN-PAGE), inverse polarity (anode-cathode), 4-10% gradient gels, HEPES/imidazole pH 7.0, 150 V, 4 °C, 5 h, ten micrograms of purified enzyme; no mass markers; dimers to higher aggregates

B1: Thermus thermophilus triosephosphate isomerase (enzyme, UniProt Q5SJR1 1-250, looked up)
chain: MRRVLVAGNWKMHKTPSEARVWFAELKRLLPPLQSEAAVLPAFPILPVAKEVLAETQVGYGAQDVSAHKEGAYTGEVSARMLSDLGCRYAIVGHSERRRYHGETDALVAEKAKRLLEEGITPILCVGEPLEVREKGEAVPYTLRQLRGSLEGVEPPGPEALVIAYEPVWAIGTGKNATPEDAEAMHQAIRKALSERYGEAFASRVRILYGGSVNPKNFADLLSMPNVDGGLVGGASLELESFLALLRIAG
notes: gene cloned into pET-3aHIS; also called TtTIM; Tt; source: E. coli Bl21 (DE3)-p-Lys S, purified (ammonium sulphate, Butyl-650M, Source 15Q)
[1]
  stoichiometry N: 9 dimers in the aggregate

B2: Trypanosoma cruzi triosephosphate isomerase (enzyme, UniProt P52270 1-251, looked up)
chain: MASKPQPIAAANWKCNGSESLLVPLIETLNAATFDHDVQCVVAPTFLHIPMTKARLTNPKFQIAAQNAITRSGAFTGEVSLQILKDYGISWVVLGHSERRLYYGETNEIVAEKVAQACAAGFHVIVCVGETNEEREAGRTAAVVLTQLAAVAQKLSKEAWSRVVIAYEPVWAIGTGKVATPQQAQEVHELLRRWVRSKLGTDIAAQLRILYGGSVTAKNARTLYQMRDINGFLVGGASLKPEFVEIIEATK
notes: triosephosphate isomerase (TIM), Trypanosoma cruzi; gene cloned into pET-3a; the aggregates are counted in dimers; also called TcTIM; Tc; source: E. coli Bl21 (DE3)-p-Lys S, purified (SP Sepharose fast flow, Butyl toyopearl, ammonium sulphate precipitation)
[2]
  binding result: binds

B3: Leishmania mexicana triosephosphate isomerase (enzyme, UniProt P48499 1-251, looked up)
chain: MSAKPQPIAAANWKCNGTTASIEKLVQVFNEHTISHDVQCVVAPTFVHIPLVQAKLRNPKYVISAENAIAKSGAFTGEVSMPILKDIGVHWVILGHSERRTYYGETDEIVAQKVSEACKQGFMVIACIGETLQQREANQTAKVVLSQTSAIAAKLTKDAWNQVVLAYEPVWAIGTGKVATPEQAQEVHLLLRKWVSENIGTDVAAKLRILYGGSVNAANAATLYAKPDINGFLVGGASLKPEFRDIIDATR
notes: triosephosphate isomerase (TIM), Leishmania mexicana; gene cloned into pET-3aHIS; also called LmTIM; Lm; source: E. coli Bl21 (DE3)-p-Lys S, purified (ammonium sulphate, Butyl-650M, Source 15Q)
[2]
  binding result: binds

B4: Taenia solium triosephosphate isomerase (enzyme, UniProt Q9GTX8 1-250, looked up)
chain: MTRKLFVGGNWKMNGSYSHINTFFDTLQKADTDPNADIVIGVPACYLKYAQDKAPKGIKIAAENCYKVGSGAFTGEISTEMIKDCGCEWVILGHSERRHIFGESNELIGEKVKHALDSGLNVIPCIGELLSEREAGKTNDVCFAQMDAIAKNVPSKEAWDKVVIAYEPVWAIGTGKTATPAQAQEVHKVVRDWIRKHVDAGIADKVRILYGGSVTASNAKDLGTQPDVDGFLVGGASLKPDFITIINARR
notes: triosephosphate isomerase (TIM), Taenia solium; gene cloned into pRSET; also called TsTIM; Ts; source: E. coli Bl21 (DE3)-p-Lys S, purified (ammonium sulphate, Butyl-650M, Source 15Q)
[1]
  stoichiometry N: 11 dimers in the aggregate and 8.5 dimers in the aggregate
